From patent publication US12584107B2 (dated 2026)
Positions count from the first letter of the chain named.

How the values were obtained:
[1] = molecular target: T1, NY-ESO-1 peptide on HLA-A*02:01 (human); test: multimer staining
T1 peptide: SLLMWITQC

[2] = molecular target: T1, NY-ESO-1 peptide on HLA-A*02:01; test: activation reporter or marker

B1: NY7JSY (TCR, V domains shown)
Valpha: QKEVEQNSGPLSVPEGAIASLNCTYSDRGSQSFFWYRQYSGKSPELIMFIYSNGDKEDGRFTAQLNKASQYVSLLIRDSQPSDSATYLCAVMRAGGFKTIFGAGTRLFVKA
Vbeta: DSGVTQTPKHLITATGQRVTLRCSPRSGDLSVYWYQQSLDQGLQFLIQYYNGEERAKGNILERFSAQQFPDLHSELNLSSLELGDSALYFCASSVVDGEQYFGPGTRLTVT
binding result [1]: recognises

B2: NY7 variant TCR ID 5 (Table A) (TCR, V domains shown)
Valpha: B1 Valpha with G29W
Vbeta: B1 Vbeta
binding result [2]: recognises
